These results are taken from patent publication US20100330617A1 (Sanofi, published 2010).

For the assay, the target named is T1, bovine serum albumin (bovine, UniProt P02769 25-607).
T1 construct: Control resin with an equimolar amount of BSA coupled; also called BSA; BSA-agarose resin
Description: affinity chromatography of murine liver extract on BSA control resin, SDS-PAGE and silver staining.

T1 sequence (P02769 25-607 limits assumed): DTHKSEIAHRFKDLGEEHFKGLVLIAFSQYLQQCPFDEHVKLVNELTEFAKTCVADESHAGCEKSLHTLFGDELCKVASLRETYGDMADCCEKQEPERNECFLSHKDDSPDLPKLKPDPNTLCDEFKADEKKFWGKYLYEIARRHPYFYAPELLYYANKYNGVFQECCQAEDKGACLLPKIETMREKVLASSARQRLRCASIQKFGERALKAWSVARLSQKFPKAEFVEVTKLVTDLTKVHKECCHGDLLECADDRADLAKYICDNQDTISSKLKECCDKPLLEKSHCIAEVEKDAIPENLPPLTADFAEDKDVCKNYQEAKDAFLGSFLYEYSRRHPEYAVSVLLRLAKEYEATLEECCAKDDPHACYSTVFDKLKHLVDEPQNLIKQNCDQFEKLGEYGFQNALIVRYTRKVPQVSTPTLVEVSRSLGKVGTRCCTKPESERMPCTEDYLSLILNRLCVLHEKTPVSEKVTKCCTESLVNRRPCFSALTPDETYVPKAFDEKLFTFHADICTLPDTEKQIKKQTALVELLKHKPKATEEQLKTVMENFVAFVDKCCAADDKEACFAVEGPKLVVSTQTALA

B1: endogenous LIMP-2 from murine liver extract (75 kD GC binding protein) (receptor)
chain: MGRCCFYTAGTLSLLLLVTSVTLLVARVFQKAVDQTIEKNMVLQNGTKVFNSWEKPPLPVYIQFYFFNVTNPEEILQGEIPLLEEVGPYTYRELRNKANIQFGENGTTISAVTNKAYVFERNQSVGDPNVDLIRTINIPLLTVVDLAQLTLLRELIEAMLKAYQQKLFVIHTVHELLWGYKDEILSLVHIFKPDVSPNFGLFYERNGTNDGEYVFLTGEDNYLNFSKIVEWNGKTSLDWWTTDTCNMINGTDGDSFHPLISKDEVLYLFPSDLCRSVHITFSSFENVEGLPAFRYKVPAEILANTSENAGFCIPEGNCMDSGVLNISICKNGAPIIMSFPHFYQADEKFVSAIKGMHPNKEEHESFVDINPLTGIILRGAKRFQINTYVRKLDDFVETGDIRTMVFPVMYLNESVLIDKETANQLKSVINTTLVVTNIPYIIMALGVFFGLVFTWLACRGQGSMDEGTADERAPLIRT
notes: Identified by mass spectrometry as LIMP-2; N-glycosylated (75 kD, 54 kD after PNGase-F); also called 75 kD polypeptide
For the molecule B1, the binding result is listed as “no binding”.
